These are literature values, as cited in article doi:10.1101/2023.06.05.542125.

Where two headings read alike, the source gives them in different places.

Series [1] deals with RNA polymerase elongation complex (Escherichia coli) (UniProt P0A7Z4).
The target is the same in series [2]. The source holds these as a separate data set.

Chain of GreA (P0A6W5 whole entry): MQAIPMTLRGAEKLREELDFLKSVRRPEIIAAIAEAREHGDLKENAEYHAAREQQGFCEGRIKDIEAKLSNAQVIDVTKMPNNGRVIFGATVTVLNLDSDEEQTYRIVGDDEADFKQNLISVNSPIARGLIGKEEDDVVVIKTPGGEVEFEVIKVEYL
Chain of GreB (P30128 whole entry): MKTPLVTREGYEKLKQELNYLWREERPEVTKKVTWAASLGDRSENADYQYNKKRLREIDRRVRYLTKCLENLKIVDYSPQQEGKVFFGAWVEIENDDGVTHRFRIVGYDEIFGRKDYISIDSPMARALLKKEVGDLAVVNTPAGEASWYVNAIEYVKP

For GreB (from UniProt P30128), the Kd in series [1] is 100 nM. Regarding GreA (from UniProt P0A6W5), the Kd in series [2] is 1000 nM.
